Experimental data as given in patent US10925928B2, “Method for treating chemotherapy-induced male infertility” (THE BOARD OF REGENTS OF THE UNIVERSITY OF TEXAS SYSTEM, priority 2013, dated 2021).
“Also recorded” adds a separate entry of the source.

Experiments:
C57BL/6 mice [1] = test: Acute mouse study: immunohistochemistry of undifferentiated spermatogonia (PLZF) and apoptosis 5 days after busulfan +/- G-CSF; type: in vivo; conditions: five days after busulfan treatment
Description: (§1) FIGS. 3A-3D. This study evaluated the chronic and acute effects of G-CSF treatment on susceptibility to cytotoxic damage by busulfan alkylating chemotherapy. (A) Five-week old C57BL/6 mice were treated with a sterilizing dose of busulfan (44 mg/kg) on day 0. Some busulfan-treated mice also received injections of recombinant human G-CSF (50 μg/kg/day) on days −2 through 4 (seven days total, see group 3 in B). (B) 3 animals were used for each of three treatment groups as shown. Animals in group 1 served as an “untreated” control group (received 0.1% BSA/DPBS and DMSO vehicles only), while those in group 2, which received only busulfan (plus 0.1% BSA/DPBS vehicle), served as positive controls for busulfan cytotoxicity. Animals in the experimental group 3 received both busulfan and daily G-CSF injections. (C) 8-10 weeks after treatment, some of the mice were euthanized and testes removed for histological evaluation of spermatogenesis. (D) In an “acute” study, testes were removed on day 5 of the experiment (one day after the last G-CSF treatment, dark triangle). These testis tissues were used for immunohistochemical analysis of undifferentiated spermatogonia (PLZF) and apoptosis (activated Caspase 3 and TUNEL, see FIGS. 10-12).
FIG. 10. […] The numbers of PLZF+spermatogonia in stained testis sections from mice treated as in FIG. 3 and analyzed as in FIG. 3D are shown. […] Statistical significance was determined by student's T-test.
FIG. 11. […] Despite increased numbers of PLZF+spermatogonia in busulfan-treated animals that also received G-CSF (FIG. 10), the proportions of PLZF+spermatogonia that were positive for activated Caspase 3 (top) were not different between animals treated with G-CSF compared to busulfan alone (p=0.38).
FIG. 12. […] Despite increased numbers of PLZF+spermatogonia in busulfan-treated animals that also received G-CSF (FIG. 10), the proportions of PLZF+spermatogonia that were positive for TUNEL were not different between animals treated with G-CSF compared to busulfan alone (p=0.28).
Shown in FIG. 10 are the numbers of PLZF+spermatogonia in stained testis sections from mice treated as in FIG. 3. […] Statistical significance was determined by student's T-test.
Despite increased numbers of PLZF+spermatogonia in busulfan-treated animals that also received G-CSF, the proportions of PLZF+spermatogonia that were positive for activated Caspase 3 (FIG. 11) or TUNEL (FIG. 12) were not different between animals treated with G-CSF compared to busulfan alone (p=0.38 and p=0.28, respectively).

C57BL/6 mice [2] = test: Mouse testis weight and histological evaluation of spermatogenesis two months after busulfan +/- G-CSF; type: in vivo
Description: as §1
FIG. 4. Mouse testis weights 2 months after busulfan treatment +/−G-CSF. Two months after treatment, testes were removed from the treated mice and weighed. […] But, testis weights from animals treated with busulfan+G-CSF were not different from those treated with busulfan+vehicle. Statistical significance was determined by a student's T-test.
FIGS. 5A-5F. […] Tiled brightfield images of H&E-stained sections of mouse testes from (A) group 1 (DMSO+vehicle), (B) group 2 (busulfan+vehicle), and (C) group 3 (busulfan+G-CSF). Dashed box inset indicates the area shown in D-F. Scale bars=500 μm. Enlarged images of the dashed boxes in A-C are shown in (D-F), respectively. Scale bars=50 μm. Filled arrowheads=seminiferous tubules with spermatogenesis. Open arrowheads=no spermatogenesis.
FIGS. 6A-6B. Quantitatively more mouse spermatogenesis was observed after busulfan treatment when mice received G-CSF treatment. Seminiferous tubule cross-sections from mice treated as shown in FIG. 5 were systematically counted and categorized as containing complete spermatogenesis (complete), up to round spermatid stage (round spermatids), up to primary spermatocytes (1° spermatocytes), or containing no spermatogenesis (empty or Sertoli cell-only). (A) The percentage of all seminiferous tubule cross-sections counted from all animals in each group which fall in the four categories is shown. […] (B) The same data presented in A are combined by group to show the percentage of seminiferous tubules containing any spermatogenesis or no spermatogenesis (empty bar segment). […] Statistically significant results (p<0.05) were determined by Tukey-Kramer ANOVA.
The results of meta-analysis of the rhesus macaque busulfan studies prompted additional studies in mice to (1) replicate the results observed in rhesus macaques and (2) determine whether G-CSF could act directly upon testicular germ cells to prevent male infertility after busulfan treatment. In the first experiment, 5 week-old C57BL/6 mice were treated with G-CSF for one week (50 μg/kg/day) and administered busulfan (44 mg/kg) on day 3 (see FIG. 3), mimicking the approach used to administer G-CSF in rhesus monkeys. Two months after completing G-CSF treatment, the mice euthanized and their testes removed. […] The testes were then analyzed histologically (FIG. 5) to determine if G-CSF treatment affected the degree of spermatogenesis after busulfan treatment. Unlike control testes, in which most tubules contained complete spermatogenesis (FIGS. 5A and D), many tubules were devoid of germ cells (empty or Sertoli cell-only) in animals treated with busulfan (FIGS. 5B-C and E-F).

rhesus macaques [3] = conditions: 8-12 mg/kg busulfan without G-CSF; two animals; total sperm per ejaculate; cited from earlier work
rhesus macaques [4] = test: Meta-analysis of ejaculated sperm counts in rhesus macaques after busulfan chemotherapy with or without G-CSF; type: in vivo, rhesus macaque
Excerpt: FIG. 1. Timeline for rhesus macaque granulocyte colony stimulating factor (G-CSF) and chemotherapy administration. FIG. 1 illustrates the timing of experimental administration of G-CSF and busulfan alkyating chemotherapy in the context of a study testing spermatogonial stem cell transplantation. Male rhesus macaques were used as recipients for spermatogonial stem cell transplantation after busulfan treatment. In order to restore the hematopoietic system after busulfan chemotherapy, autologous transplants of hematopoietic stem cells harvested from the peripheral blood (PBSCs) following G-CSF mobilization were used. Animals received daily subcutaneous injections with the cytokine G-CSF (and in some cases, also SCF) for six days to mobilize hematopoietic stem cells from the bone marrow into the general circulation. […] Animals were monitored closely for hematopoietic deficits with weekly (or more frequent) complete blood count (CBC). […] Weekly ejaculated sperm counts measured the effect of busulfan on spermatogenesis and the progression of spermatogenic recovery after transplant. […]
Animals received daily subcutaneous injections with the cytokine G-CSF for 6 days to mobilize hematopoietic stem cells from the bone marrow into the general circulation. […] Animals were monitored closely for hematopoietic deficits with weekly (or more frequent) complete blood count (CBC). […]

irradiated mice = conditions: G-CSF 100 μg/kg/day for 3 days prior to 5 Gy testicular gamma irradiation; measured 3 weeks later; cited from earlier work
[5] = 2 day pre-treatment and 5 day post-treatment with G-CSF 50 μg/kg, p<0.05 Tukey-Kramer ANOVA

CS(=O)(=O)OCCCCOS(C)(=O)=O [busulfan, reference compound]
numbers of PLZF+ spermatogonia per tubule, busulfan-treated groups compared with vehicle-treated animals (C57BL/6 mice [1]; student's T-test): significantly lower | spermatogenesis, busulfan alone compared to control animals (C57BL/6 mice [2]; busulfan 44 mg/kg, two months after treatment, histology of seminiferous tubule cross-sections): significantly less spermatogenesis | testis weights, busulfan-treated animals compared with controls (C57BL/6 mice [2]; busulfan 44 mg/kg, two months after treatment, student's T-test): significantly smaller; also recorded: significantly reduced | loss of spermatogenesis (azoospermia), mean sperm counts (rhesus macaques [3]): loss of spermatogenesis (azoospermia) for at least one year

SCF: cytokine given in some cases in addition to G-CSF for mobilization of hematopoietic stem cells
spermatogenic recovery, animal given SCF in addition to G-CSF compared with the other two G-CSF animals (rhesus macaques [4]; one monkey of the G-CSF group, data not shown): no apparent difference in spermatogenic recovery

B1: granulocyte colony-stimulating factor (protein, UniProt P09919 31-207, looked up)
Granulocyte …: TPLGPASSLPQSFLLKCLEQVRKIQGDGAALQEKLVSECATYKLCHPEELVLLGHSLGIPWAPLSSCPSQALQLAGCLSQLHSGLFLYQGLLQALEGISPELGPTLDTLQLDVADFATTIWQQMEELGMAPALQPTQGAMPAFASAFQRRAGGVLVASHLQSFLEVSYRVLRHLAQP
notes: protein produced from the gene encoding colony-stimulating factor 3; known by trade names neupogen, neulasta, filgrastim
proportion of PLZF+ spermatogonia positive for activated Caspase 3, G-CSF compared to busulfan alone (C57BL/6 mice [1]; early apoptosis, p=0.38): not different | number of PLZF+ spermatogonia per tubule cross-section, G-CSF + busulfan compared with busulfan alone (C57BL/6 mice [1]; p=0.035, student's T-test): significantly higher | proportion of PLZF+ spermatogonia positive for TUNEL, G-CSF compared to busulfan alone (C57BL/6 mice [1]; late apoptosis, p=0.28): not different | numbers of surviving differentiated spermatogonia following sub-sterilizing irradiation (irradiated mice): modest improvement | empty seminiferous tubules, G-CSF + busulfan compared with busulfan alone (C57BL/6 mice [2]; [5]): significantly fewer; also recorded: significantly less | seminiferous tubules containing complete spermatogenesis, G-CSF + busulfan compared with busulfan alone (C57BL/6 mice [2]; [5]): significantly more | tubules with any degree of spermatogenesis, G-CSF + busulfan compared with busulfan alone (C57BL/6 mice [2]; [5]): significantly more | testis weights, busulfan + G-CSF compared with busulfan alone (C57BL/6 mice [2]; G-CSF 50 μg/kg/day for seven days, busulfan 44 mg/kg, two months after treatment): not different; also recorded: did not differ significantly | recovery of spermatogenesis after busulfan treatment, G-CSF compared with controls (C57BL/6 mice [2]; histological analysis, G-CSF 50 μg/kg/day, busulfan 44 mg/kg, two months): significantly better recovery of spermatogenesis | time at which spermatogenesis recovered after busulfan treatment (rhesus macaques [4]; 8-11 mg/kg busulfan plus G-CSF mobilization and PBSC transplants, three animals, endogenous spermatogenesis): ≥ 20 weeks
